{
  "source": "patent US7211424B1",
  "about": "“Mammalian Subtilisin/kexin isozyme SKI-1: a proprotein convertase with a unique cleavage specificity” (Institut de Recherches Cliniques de Montreal, priority 1999, dated 2007)",
  "molecules": {"B1": {"name": "BTMD-hSKI-1 (Homo sapiens) (protein)", "chain": "RAIPRQVAQTLQADVLWQMGYTGANVRVAVFDTGLSEKHPHFKNVKERTNWTNERTLDDGLGHGTFVAGVIASMRECQGFAPDAELHIFRVFTNNQVSYTSWFLDAFNYAILKKIDVLNLSIGGPDFMDHPFVDKVWELTANNVIMVSAIGNDGPLYGTLNNPADQMDVIGVGGIDFEDNIARFSSRGMTTWELPGGYGRMKPDIVTYGAGVRGSGVKGGCRALSGTSVASPVVAGAVTLLVSTVQKRELVNPASMKQALIASARRLPGVNMFEQGHGKLDLLRAYQILNSYKPQASLSPSYIDLTECPYMWPYCSQPIYYGGMPTVVNVTILNGMGVTGRIVDKPDWQPYLPQNGDNIEVAFSYSSVLWPWSGYLAISISVTKKAASWEGIAQGHVMITVASPAETESKNGAEQTSTVKLPIKVKIIPTPPRSKRVLWDQYHNLRYPPGYFPRDNLRMKNDPLDWNGDHIHTNFRDMYQHLRSMGYFVEVLGAPFTCFDASQYGTLLMVDSEEEYFPEEIAKLRRDVDNGLSLVIFSDWYNTSVMRKVKFYDENTRQWWMPDTGGANIPALNELLSVWNMGFSDGLYEGEFTLANHDMYYASGCSIAKFPEDGVVITQTFKDQGLEVLKQETAVVENVPILGLYQIPAEGGGRIVLYGDSNCLDDSHRQKDCFWLLDALLQYTSYGVTPPSLSHSGNRQRPPSGAGSVTPERMEGNHLHRYSKVLEAHLGDPKPRPLPACPRLSWAKPQPLNETAPSNLWKHQKLLSIDLDKVVLPNFRSNRPQVRPLSPGESGAWDIPGGIMPGRYNQE"}, "B2": {"name": "peptide X, Q-hSKI-1 (132-142): Abz-VFRSLKYAESD-Y(NO2)-A (peptide)", "peptide": "[2Abz]VFRSLKYAESD[Tyr(3-NO2)]A-NH2", "modifications": "N-terminus assumed", "SMILES": "CC(C)C[C@H](NC(=O)[C@H](CO)NC(=O)[C@H](CCCNC(=N)N)NC(=O)[C@H](Cc1ccccc1)NC(=O)[C@@H](NC(=O)c1ccccc1N)C(C)C)C(=O)N[C@@H](CCCCN)C(=O)N[C@@H](Cc1ccc(O)cc1)C(=O)N[C@@H](C)C(=O)N[C@@H](CCC(=O)O)C(=O)N[C@@H](CO)C(=O)N[C@@H](CC(=O)O)C(=O)N[C@@H](Cc1ccc(O)c([N+](=O)[O-])c1)C(=O)N[C@@H](C)C(N)=O"}, "B3": {"name": "peptide XI, Q-hSKI-1 (134-142): Abz-RSLKYAESD-Y(NO2)-A (peptide)", "peptide": "[2Abz]RSLKYAESD[Tyr(3-NO2)]A-NH2", "modifications": "N-terminus assumed", "SMILES": "CC(C)C[C@H](NC(=O)[C@H](CO)NC(=O)[C@H](CCCNC(=N)N)NC(=O)c1ccccc1N)C(=O)N[C@@H](CCCCN)C(=O)N[C@@H](Cc1ccc(O)cc1)C(=O)N[C@@H](C)C(=O)N[C@@H](CCC(=O)O)C(=O)N[C@@H](CO)C(=O)N[C@@H](CC(=O)O)C(=O)N[C@@H](Cc1ccc(O)c([N+](=O)[O-])c1)C(=O)N[C@@H](C)C(N)=O"}, "B4": {"name": "PS2 (SKI-1 prosegment construct extending to Ala188, hexa-His tag) (other)", "chain": "KKHLGDRLEKKSFEKAPCPGCSHLTLKVEFSSTVVEYEYIVAFNGYFTAKARNSFISSALKSSEVDNWRIIPRNNPSSDYPSDFEVIQIKEKQKAGLLTLEDHPNIKRVTPQRKVFRSLKYAESDPTVPCNETRWSQKWQSSRPLRRASLSLGSGFWHATGRHSSRRLLRAHHHHHH", "notes": "Bacterial recombinant (pET24b, E. coli BL21); The start at aa 18 follows the sense primer and claim 3; Any vector-derived residues are not described"}, "B5": {"name": "PS3 (SKI-1 prosegment construct extending to Leu197, hexa-His tag) (other)", "chain": "KKHLGDRLEKKSFEKAPCPGCSHLTLKVEFSSTVVEYEYIVAFNGYFTAKARNSFISSALKSSEVDNWRIIPRNNPSSDYPSDFEVIQIKEKQKAGLLTLEDHPNIKRVTPQRKVFRSLKYAESDPTVPCNETRWSQKWQSSRPLRRASLSLGSGFWHATGRHSSRRLLRAIPRQVAQTLHHHHHH", "notes": "Bacterial recombinant (pET24b, E. coli BL21); Any vector-derived residues are not described"}},
  "key": {"[1]": {"substrate": "CC(C)C[C@H](NC(=O)[C@@H](NC(=O)[C@H](CO)NC(=O)[C@H](CCCNC(=N)N)NC(=O)CNC(=O)[C@H](CO)NC(=O)CNC(=O)[C@H](CO)NC(=O)[C@H](Cc1c[nH]cn1)NC(=O)[C@@H]1CCCN1C(=O)[C@H](Cc1c[nH]cn1)NC(=O)[C@H](CCC(N)=O)NC(=O)[C@H](CC(=O)O)NC(=O)[C@H](CO)NC(=O)[C@H](CC(=O)O)NC(=O)[C@H](Cc1c[nH]cn1)NC(=O)[C@H](C)NC(=O)CNC(=O)CN)C(C)C)C(=O)N[C@@H](CO)C(=O)N[C@@H](Cc1ccccc1)C(=O)N[C@@H](CCC(=O)O)C(=O)N[C@@H](CO)C(=O)NCC(=O)N[C@@H](CO)C(=O)NCC(=O)NCC(=O)O", "test": "purified protein, by the assay type", "conditions": "other: BTMD-SKI-1 medium, times giving 5–30% substrate hydrolysis; averages of duplicate assays; pH 6.5; 37.0 °C"}, "[2]": {"substrate": "CC(C)C[C@H](NC(=O)[C@H](C)NC(=O)[C@H](CCCNC(=N)N)NC(=O)[C@H](CC(C)C)NC(=O)[C@H](CC(C)C)NC(=O)[C@H](CCCNC(=N)N)NC(=O)[C@H](CCCNC(=N)N)NC(=O)[C@@H](N)CO)C(=O)N[C@@H](CCC(=O)O)C(N)=O", "test": "purified protein, by the assay type", "conditions": "other: BTMD-SKI-1 medium, times giving 5–30% substrate hydrolysis; averages of duplicate assays; pH 6.5; 37.0 °C"}, "[3]": {"substrate": "CC(C)C[C@H](NC(=O)[C@H](C)NC(=O)[C@H](CCCNC(=N)N)NC(=O)[C@H](CC(C)C)NC(=O)[C@H](CC(C)C)NC(=O)[C@H](CCCNC(=N)N)NC(=O)[C@H](CCCNC(=N)N)NC(=O)[C@H](CO)NC(=O)[C@H](CO)NC(=O)[C@H](Cc1c[nH]cn1)NC(=O)[C@H](CCCNC(=N)N)NC(=O)CNC(=O)[C@@H](NC(=O)[C@H](C)NC(=O)[C@H](Cc1c[nH]cn1)NC(=O)[C@@H](N)Cc1c[nH]c2ccccc12)[C@@H](C)O)C(=O)N[C@@H](CCC(=O)O)C(N)=O", "test": "purified protein, by the assay type", "conditions": "other: BTMD-SKI-1 medium, times giving 5–30% substrate hydrolysis; averages of duplicate assays; pH 6.5; 37.0 °C"}, "[4]": {"target": "T1, 98 kDa shed form of SKI-1 (sSKI-1) (human, UniProt Q14703 187-996)", "T1 sequence": "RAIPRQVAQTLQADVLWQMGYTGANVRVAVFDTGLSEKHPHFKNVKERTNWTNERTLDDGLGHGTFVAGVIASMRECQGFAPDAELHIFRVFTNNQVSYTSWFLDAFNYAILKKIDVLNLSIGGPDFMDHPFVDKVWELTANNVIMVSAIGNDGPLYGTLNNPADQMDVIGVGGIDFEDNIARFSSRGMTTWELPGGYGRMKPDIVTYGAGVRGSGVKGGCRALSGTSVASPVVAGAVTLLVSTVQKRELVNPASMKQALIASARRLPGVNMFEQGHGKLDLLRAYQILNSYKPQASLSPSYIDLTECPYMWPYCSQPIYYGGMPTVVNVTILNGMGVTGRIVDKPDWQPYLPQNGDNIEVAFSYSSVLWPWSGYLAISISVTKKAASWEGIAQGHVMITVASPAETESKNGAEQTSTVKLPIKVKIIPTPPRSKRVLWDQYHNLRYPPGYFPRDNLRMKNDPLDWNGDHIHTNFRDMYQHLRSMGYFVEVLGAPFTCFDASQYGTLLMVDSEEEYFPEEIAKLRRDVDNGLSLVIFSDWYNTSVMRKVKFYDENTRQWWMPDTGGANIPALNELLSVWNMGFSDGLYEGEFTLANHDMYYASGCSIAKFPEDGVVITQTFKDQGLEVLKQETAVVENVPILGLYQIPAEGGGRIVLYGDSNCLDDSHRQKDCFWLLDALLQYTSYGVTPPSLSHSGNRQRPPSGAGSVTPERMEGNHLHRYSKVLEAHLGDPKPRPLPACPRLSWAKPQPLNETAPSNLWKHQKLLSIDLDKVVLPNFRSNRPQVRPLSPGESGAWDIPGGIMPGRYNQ", "test": "cell-based or functional assay"}, "BTMD-hSKI-1": {"target": "T2, BTMD-hSKI-1 (Homo sapiens, UniProt Q14703)", "T2 sequence (Q14703 187-997 limits assumed)": "B1 chain", "type": "biochemical"}, "BTMD-SKI-1": {"target": "T3, BTMD-SKI-1 (human, UniProt Q14703 187-997)", "T3 construct": "The construct encodes aa 1-997 plus hexa-His; It was secreted from VV-infected BSC40 or LoVo cells and used as concentrated medium or after metal chelation purification; The secreted enzyme stays associated with the ~14 kDa prosegment fragment; also called bSKI-1; BTMD-hSKI-1", "T3 sequence": "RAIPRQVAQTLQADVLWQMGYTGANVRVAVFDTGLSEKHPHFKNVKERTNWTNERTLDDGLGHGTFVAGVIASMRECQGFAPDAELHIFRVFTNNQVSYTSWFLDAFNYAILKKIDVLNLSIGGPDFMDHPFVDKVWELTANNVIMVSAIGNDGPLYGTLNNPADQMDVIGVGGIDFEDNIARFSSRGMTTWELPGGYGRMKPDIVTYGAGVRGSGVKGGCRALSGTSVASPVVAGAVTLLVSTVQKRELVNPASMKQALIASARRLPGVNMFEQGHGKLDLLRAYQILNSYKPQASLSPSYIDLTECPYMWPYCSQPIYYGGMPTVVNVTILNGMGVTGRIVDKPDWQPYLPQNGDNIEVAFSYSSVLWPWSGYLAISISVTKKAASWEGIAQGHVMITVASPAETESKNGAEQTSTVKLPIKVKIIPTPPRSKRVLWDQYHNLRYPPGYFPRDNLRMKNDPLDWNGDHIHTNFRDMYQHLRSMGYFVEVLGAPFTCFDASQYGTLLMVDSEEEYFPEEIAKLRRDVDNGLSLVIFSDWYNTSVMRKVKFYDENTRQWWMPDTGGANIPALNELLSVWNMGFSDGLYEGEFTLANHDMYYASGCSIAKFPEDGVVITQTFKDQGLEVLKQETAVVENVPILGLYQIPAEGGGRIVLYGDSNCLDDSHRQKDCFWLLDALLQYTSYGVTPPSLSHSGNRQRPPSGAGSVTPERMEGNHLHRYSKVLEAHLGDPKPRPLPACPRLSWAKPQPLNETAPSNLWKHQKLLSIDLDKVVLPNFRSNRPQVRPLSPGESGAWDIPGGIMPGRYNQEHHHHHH", "test": "Ki(app) from Dixon plots; inhibition of peptide IV hydrolysis by BTMD-SKI-1 medium (RP-HPLC), prosegment preincubated with the enzyme for 30 min"}},
  "note": "Where no end group is shown, it is not given here. [ ]: non-standard residue; d: D form. Tyr(3-NO2) = N[C@@H](Cc1ccc(O)c([N+](=O)[O-])c1)C(=O)O; 2Abz = Nc1ccccc1C(=O)O",
  "data": [
    {"molecule": "B1", "values": [
      {"measurement": "Km", "setting": "[1]", "result": 124, "unit": "nM*1000"},
      {"measurement": "Vmax", "setting": "[1]", "result": "8.33e-06", "unit": "µmol/min"},
      {"measurement": "Km", "setting": "[2]", "result": 109, "unit": "nM*1000"},
      {"measurement": "Vmax", "setting": "[2]", "result": "1.83e-05", "unit": "µmol/min"},
      {"measurement": "Km", "setting": "[3]", "result": 17, "unit": "nM*1000"},
      {"measurement": "Vmax", "setting": "[3]", "result": "6.67e-06", "unit": "µmol/min"}
    ]},
    {"molecule": "B2", "values": [
      {"measurement": "kinetic parameters relative to peptide IV", "setting": "[4]", "result": "~3", "unit": "fold"}
    ]},
    {"molecule": "B3", "values": [
      {"measurement": "kinetic parameters relative to peptide IV", "setting": "[4]", "result": "~16", "unit": "fold"}
    ]},
    {"molecule": "B4", "values": [
      {"measurement": "inhibitory potency after digestion with carboxypeptidase B to eliminate the His-tag", "setting": "BTMD-hSKI-1", "result": "not affected"},
      {"measurement": "Ki", "setting": "BTMD-hSKI-1; read-out: Ki(app)", "result": 97, "unit": "nM"},
      {"measurement": "Ki", "setting": "BTMD-SKI-1", "result": 97.5, "unit": "nM"}
    ]},
    {"molecule": "B5", "values": [
      {"measurement": "Ki", "setting": "BTMD-SKI-1", "result": 127, "unit": "nM"}
    ]}
  ]
}
